In the supplement of paper PMC10065799, “High-throughput profiling of sequence recognition by tyrosine kinases and SH2 domains using bacterial peptide display” (eLife, 2023):

molecular target: EPHB1 (UniProt P54762); experiment: phosphorylation enrichment, bacterial display (enrichment ratio); higher = better substrate or ligand; peptides without Tyr show the background
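Further: 11-residue human phosphosite peptides and single-mutation variants displayed on the E. coli surface, counted by deep sequencing, each peptide's frequency after selection divided by its frequency in the unselected input library; frequency after pTyr selection over input frequency; kinase dosed for 20-30% of maximal phosphorylation in three min.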

Chain of EPHB1 (P54762 whole entry, looked up): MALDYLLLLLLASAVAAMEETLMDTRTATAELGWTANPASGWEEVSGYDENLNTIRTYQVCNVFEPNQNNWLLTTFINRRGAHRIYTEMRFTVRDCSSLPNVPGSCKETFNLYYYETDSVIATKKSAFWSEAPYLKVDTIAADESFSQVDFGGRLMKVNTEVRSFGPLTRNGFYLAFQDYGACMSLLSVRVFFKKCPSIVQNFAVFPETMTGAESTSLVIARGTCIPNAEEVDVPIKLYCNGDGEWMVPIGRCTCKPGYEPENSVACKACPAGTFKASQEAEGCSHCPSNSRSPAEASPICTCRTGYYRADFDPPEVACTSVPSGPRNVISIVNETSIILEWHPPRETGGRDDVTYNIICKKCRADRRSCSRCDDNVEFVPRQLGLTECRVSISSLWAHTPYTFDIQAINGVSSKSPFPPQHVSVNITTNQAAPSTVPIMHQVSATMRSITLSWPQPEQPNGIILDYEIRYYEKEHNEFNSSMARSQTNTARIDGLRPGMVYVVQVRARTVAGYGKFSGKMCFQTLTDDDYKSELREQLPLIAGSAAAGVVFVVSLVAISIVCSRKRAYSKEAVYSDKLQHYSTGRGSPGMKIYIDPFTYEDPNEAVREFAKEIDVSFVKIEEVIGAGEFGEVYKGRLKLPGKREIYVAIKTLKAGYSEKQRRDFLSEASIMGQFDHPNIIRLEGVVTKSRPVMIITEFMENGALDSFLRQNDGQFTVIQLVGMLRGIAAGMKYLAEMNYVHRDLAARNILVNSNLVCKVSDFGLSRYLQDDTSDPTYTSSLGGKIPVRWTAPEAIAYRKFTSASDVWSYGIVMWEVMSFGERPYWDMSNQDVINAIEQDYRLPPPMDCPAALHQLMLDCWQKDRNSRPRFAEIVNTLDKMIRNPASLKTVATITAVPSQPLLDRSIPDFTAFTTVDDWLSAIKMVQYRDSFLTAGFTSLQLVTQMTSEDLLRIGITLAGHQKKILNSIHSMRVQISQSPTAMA

Sequence	phosphorylation enrichment
AKKKMYSLKTK [AGXT_Y231_R233L]	0.317
ERFSYYGMKAV [SLC15A2_Y61]	0.477
QDEHGYISWCF [HSPB1_Y133_R136W]	1
RLGLQYSQGLV [EIF2B4_Y214]	0.676
CTTIHYMFMCN [TP53_Y234_N235M_YF]	0.608
MFFSTYDRDND [FGB_Y408]	0.541
QEALEYFMKQM [PIK3CA_Y1038]	0.644
KGSEGYLAATY [NF1_Y2503]	0.372
KGIDRYNPENL [EIF3K_Y21]	0.349
VDASFCGGRGV [ANTXR2_Y381_Y381C_YF]	0.514
ESKAGYRVPRS [CLDN7_Y195]	0.303
EAGKVYLKAAM [CBFB_Y96_P100A]	0.565
VHNLNYFKKTT [FGFR3_Y647_D646N_YF]	0.36
TACNPYKPPGP	0.733
NNDLCYWVLEL [IARS1_Y434_P437L]	1.37
KVGNGYISAAE [CALM2_Y100_D96V]	0.4
YETSHYLASPD [CTNND2_Y1217_P1218L]	0.59

Sequence	phosphorylation enrichment
CTTIQYNFMCN [TP53_Y234_H233Q_YF]	0.499
FQNSLYAPDYS [FAM92A_Y226_R222Q]	2.48
ELTAKYLNYYQ [P3H4_Y181]	0.705
RPIEVYLCPEE [E2F3_Y349_G344R]	1.49
GEDDVYDSVPG [FGR_opt_2018]	0.683
MYQVQYNSSVD [LRFN1_Y458]	0.606
TFEYRYLEDQD [CNOT3_Y746_R750Q]	0.566
FSLIHYAGIVD [MYH7_Y582]	0.503
QRIHDYFEHRF [HCN4_Y554_YF]	0.614
FKEQGYHRLPP [RIN1_Y681_YF]	0.561
RSRQIYDAFIM [GRK3_Y109_YF]	2.49
LSSEMCVKSYT [F5_Y2149_Y2149C]	1.54
KIMVIYDGACQ [VWDE_Y1035_T1032M]	1.3
FRRITYFNWRH [PDE6B_Y556_H557Y_YF]	0.626
WEPFGFAVTRC [PTPRT_Y412_Y412F]	0.702
NAGAFYVLSTL [FLVCR2_Y325_A326V]	0.55

tested on: c-Abl (mouse); experiment: as above

Sequence	phosphorylation enrichment
AKKKMYSLKTK [AGXT_Y231_R233L]	0.773
ERFSYYGMKAV [SLC15A2_Y61]	0.578
QDEHGYISWCF [HSPB1_Y133_R136W]	1.55
RLGLQYSQGLV [EIF2B4_Y214]	1.16
CTTIHYMFMCN [TP53_Y234_N235M_YF]	0.673
MFFSTYDRDND [FGB_Y408]	0.84
QEALEYFMKQM [PIK3CA_Y1038]	1.19
KGSEGYLAATY [NF1_Y2503]	0.471
KGIDRYNPENL [EIF3K_Y21]	0.456
VDASFCGGRGV [ANTXR2_Y381_Y381C_YF]	0.744
ESKAGYRVPRS [CLDN7_Y195]	0.681
EAGKVYLKAAM [CBFB_Y96_P100A]	0.775
VHNLNYFKKTT [FGFR3_Y647_D646N_YF]	0.442
TACNPYKPPGP	1.14
NNDLCYWVLEL [IARS1_Y434_P437L]	1.31
KVGNGYISAAE [CALM2_Y100_D96V]	0.538
YETSHYLASPD [CTNND2_Y1217_P1218L]	0.821

Sequence	phosphorylation enrichment
CTTIQYNFMCN [TP53_Y234_H233Q_YF]	0.593
FQNSLYAPDYS [FAM92A_Y226_R222Q]	0.618
ELTAKYLNYYQ [P3H4_Y181]	0.564
RPIEVYLCPEE [E2F3_Y349_G344R]	1.97
GEDDVYDSVPG [FGR_opt_2018]	0.617
MYQVQYNSSVD [LRFN1_Y458]	0.52
TFEYRYLEDQD [CNOT3_Y746_R750Q]	0.673
FSLIHYAGIVD [MYH7_Y582]	0.609
QRIHDYFEHRF [HCN4_Y554_YF]	0.625
FKEQGYHRLPP [RIN1_Y681_YF]	0.345
RSRQIYDAFIM [GRK3_Y109_YF]	9.12
LSSEMCVKSYT [F5_Y2149_Y2149C]	1.59
KIMVIYDGACQ [VWDE_Y1035_T1032M]	0.965
FRRITYFNWRH [PDE6B_Y556_H557Y_YF]	0.573
WEPFGFAVTRC [PTPRT_Y412_Y412F]	1
NAGAFYVLSTL [FLVCR2_Y325_A326V]	0.69

molecular target: EPHB2 (UniProt P29323); experiment: as above
Sequence (P29323 whole entry, looked up): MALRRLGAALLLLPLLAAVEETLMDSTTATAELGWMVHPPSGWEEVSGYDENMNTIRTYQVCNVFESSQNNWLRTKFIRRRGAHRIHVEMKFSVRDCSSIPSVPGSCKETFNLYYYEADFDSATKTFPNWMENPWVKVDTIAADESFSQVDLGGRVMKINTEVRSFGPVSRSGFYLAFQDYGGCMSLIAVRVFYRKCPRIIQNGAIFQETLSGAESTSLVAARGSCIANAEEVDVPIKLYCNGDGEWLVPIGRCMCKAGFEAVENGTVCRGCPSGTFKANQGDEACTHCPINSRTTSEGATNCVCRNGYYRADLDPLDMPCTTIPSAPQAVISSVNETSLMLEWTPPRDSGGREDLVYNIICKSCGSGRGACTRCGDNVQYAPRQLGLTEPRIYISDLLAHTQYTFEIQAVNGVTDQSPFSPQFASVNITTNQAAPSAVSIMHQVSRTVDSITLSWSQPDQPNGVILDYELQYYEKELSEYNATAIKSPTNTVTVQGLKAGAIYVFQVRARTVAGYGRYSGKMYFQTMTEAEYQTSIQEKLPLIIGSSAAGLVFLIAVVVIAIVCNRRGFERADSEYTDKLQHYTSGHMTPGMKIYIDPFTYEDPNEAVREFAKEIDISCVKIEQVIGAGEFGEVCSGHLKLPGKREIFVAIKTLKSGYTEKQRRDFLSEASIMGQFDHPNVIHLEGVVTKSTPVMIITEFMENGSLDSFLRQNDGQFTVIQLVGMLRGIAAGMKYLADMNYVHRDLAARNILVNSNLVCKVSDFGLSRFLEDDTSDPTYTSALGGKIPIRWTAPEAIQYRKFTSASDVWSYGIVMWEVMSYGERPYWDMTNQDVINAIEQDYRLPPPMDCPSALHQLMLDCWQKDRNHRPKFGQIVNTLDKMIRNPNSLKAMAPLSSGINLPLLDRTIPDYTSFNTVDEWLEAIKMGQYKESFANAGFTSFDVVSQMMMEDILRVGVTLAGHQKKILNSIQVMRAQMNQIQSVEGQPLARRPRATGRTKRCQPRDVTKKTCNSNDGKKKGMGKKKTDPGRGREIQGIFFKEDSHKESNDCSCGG

Sequence	phosphorylation enrichment
AKKKMYSLKTK [AGXT_Y231_R233L]	0.463
ERFSYYGMKAV [SLC15A2_Y61]	0.658
QDEHGYISWCF [HSPB1_Y133_R136W]	0.873
RLGLQYSQGLV [EIF2B4_Y214]	0.725
CTTIHYMFMCN [TP53_Y234_N235M_YF]	0.668
MFFSTYDRDND [FGB_Y408]	0.578
QEALEYFMKQM [PIK3CA_Y1038]	0.624
KGSEGYLAATY [NF1_Y2503]	0.365
KGIDRYNPENL [EIF3K_Y21]	0.446
VDASFCGGRGV [ANTXR2_Y381_Y381C_YF]	0.495
ESKAGYRVPRS [CLDN7_Y195]	0.327
EAGKVYLKAAM [CBFB_Y96_P100A]	0.484
VHNLNYFKKTT [FGFR3_Y647_D646N_YF]	0.314
TACNPYKPPGP	0.417
NNDLCYWVLEL [IARS1_Y434_P437L]	1.05
KVGNGYISAAE [CALM2_Y100_D96V]	0.468
YETSHYLASPD [CTNND2_Y1217_P1218L]	0.767

Sequence	phosphorylation enrichment
CTTIQYNFMCN [TP53_Y234_H233Q_YF]	0.49
FQNSLYAPDYS [FAM92A_Y226_R222Q]	2.45
ELTAKYLNYYQ [P3H4_Y181]	0.642
RPIEVYLCPEE [E2F3_Y349_G344R]	0.998
GEDDVYDSVPG [FGR_opt_2018]	0.762
MYQVQYNSSVD [LRFN1_Y458]	0.69
TFEYRYLEDQD [CNOT3_Y746_R750Q]	0.553
FSLIHYAGIVD [MYH7_Y582]	0.648
QRIHDYFEHRF [HCN4_Y554_YF]	0.843
FKEQGYHRLPP [RIN1_Y681_YF]	0.298
RSRQIYDAFIM [GRK3_Y109_YF]	2.6
LSSEMCVKSYT [F5_Y2149_Y2149C]	0.888
KIMVIYDGACQ [VWDE_Y1035_T1032M]	1.11
FRRITYFNWRH [PDE6B_Y556_H557Y_YF]	0.625
WEPFGFAVTRC [PTPRT_Y412_Y412F]	0.653
NAGAFYVLSTL [FLVCR2_Y325_A326V]	0.573

molecular target: FGFR1 (UniProt P11362); experiment: as above
Sequence (P11362 whole entry, looked up): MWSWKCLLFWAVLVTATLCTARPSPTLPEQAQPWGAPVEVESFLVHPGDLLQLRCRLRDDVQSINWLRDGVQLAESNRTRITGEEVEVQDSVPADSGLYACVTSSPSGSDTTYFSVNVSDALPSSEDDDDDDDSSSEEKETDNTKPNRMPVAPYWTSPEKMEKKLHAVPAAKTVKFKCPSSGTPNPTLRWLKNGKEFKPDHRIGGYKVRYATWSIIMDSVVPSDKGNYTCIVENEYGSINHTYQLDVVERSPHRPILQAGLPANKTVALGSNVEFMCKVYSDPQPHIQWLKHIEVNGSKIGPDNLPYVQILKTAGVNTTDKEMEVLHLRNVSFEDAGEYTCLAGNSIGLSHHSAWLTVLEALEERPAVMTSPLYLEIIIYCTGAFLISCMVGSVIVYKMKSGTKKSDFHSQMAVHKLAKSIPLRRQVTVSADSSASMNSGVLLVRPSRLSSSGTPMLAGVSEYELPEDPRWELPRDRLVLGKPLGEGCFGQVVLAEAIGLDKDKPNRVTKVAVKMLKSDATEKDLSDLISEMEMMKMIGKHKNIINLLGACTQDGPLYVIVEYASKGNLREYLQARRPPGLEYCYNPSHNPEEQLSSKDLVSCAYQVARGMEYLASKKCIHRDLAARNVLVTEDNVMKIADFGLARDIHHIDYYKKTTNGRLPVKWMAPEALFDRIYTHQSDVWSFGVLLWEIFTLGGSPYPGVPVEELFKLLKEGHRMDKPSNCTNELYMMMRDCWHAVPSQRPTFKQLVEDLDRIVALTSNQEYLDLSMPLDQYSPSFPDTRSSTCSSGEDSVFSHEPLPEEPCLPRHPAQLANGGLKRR

Sequence	phosphorylation enrichment
AKKKMYSLKTK [AGXT_Y231_R233L]	0.389
ERFSYYGMKAV [SLC15A2_Y61]	4.94
QDEHGYISWCF [HSPB1_Y133_R136W]	1.27
RLGLQYSQGLV [EIF2B4_Y214]	0.853
CTTIHYMFMCN [TP53_Y234_N235M_YF]	0.526
MFFSTYDRDND [FGB_Y408]	0.673
QEALEYFMKQM [PIK3CA_Y1038]	0.627
KGSEGYLAATY [NF1_Y2503]	0.377
KGIDRYNPENL [EIF3K_Y21]	0.493
VDASFCGGRGV [ANTXR2_Y381_Y381C_YF]	0.531
ESKAGYRVPRS [CLDN7_Y195]	0.305
EAGKVYLKAAM [CBFB_Y96_P100A]	0.674
VHNLNYFKKTT [FGFR3_Y647_D646N_YF]	0.355
TACNPYKPPGP	0.354
NNDLCYWVLEL [IARS1_Y434_P437L]	7.77
KVGNGYISAAE [CALM2_Y100_D96V]	0.456
YETSHYLASPD [CTNND2_Y1217_P1218L]	0.649

Sequence	phosphorylation enrichment
CTTIQYNFMCN [TP53_Y234_H233Q_YF]	0.586
FQNSLYAPDYS [FAM92A_Y226_R222Q]	0.781
ELTAKYLNYYQ [P3H4_Y181]	0.683
RPIEVYLCPEE [E2F3_Y349_G344R]	1.11
GEDDVYDSVPG [FGR_opt_2018]	0.676
MYQVQYNSSVD [LRFN1_Y458]	0.488
TFEYRYLEDQD [CNOT3_Y746_R750Q]	0.77
FSLIHYAGIVD [MYH7_Y582]	0.405
QRIHDYFEHRF [HCN4_Y554_YF]	5.67
FKEQGYHRLPP [RIN1_Y681_YF]	0.58
RSRQIYDAFIM [GRK3_Y109_YF]	0.339
LSSEMCVKSYT [F5_Y2149_Y2149C]	1.23
KIMVIYDGACQ [VWDE_Y1035_T1032M]	0.687
FRRITYFNWRH [PDE6B_Y556_H557Y_YF]	0.553
WEPFGFAVTRC [PTPRT_Y412_Y412F]	0.447
NAGAFYVLSTL [FLVCR2_Y325_A326V]	0.483
